Results reported in article PMC3498133 (2012).
Several values for one entry are separate records, joined by “and”; a condition that tells them apart may be missing. Equal entries are not always repeated.

Biological target: SpcU (Pseudomonas aeruginosa, UniProt O66100 1-137)
Experiment: ITC

B1: ExoU (natural protein)
chain: MHIQSLGATASSLNQEPVETPSQAAHKSASLRQEPSGQGLGVALKSTPGILSGKLPESVSDVRFSSPQGQGESRTLTDSAGPRQITLRQFENGVTELQLSRPPLTSLVLSGGGAKGAAYPGAMLALEEKGMLDGIRSMSGSSAGGITAALLASGMSPAAFKTLSDKMDLISLLDSSNKKLKLFQHISSEIGASLKKGLGNKIGGFSELLLNVLPRIDSRAEPLERLLRDETRKAVLGQIATHPEVARQPTVAAIASRLQSGSGVTFGDLDRLSAYIPQIKTLNITGTAMFEGRPQLVVFNASHTPDLEVAQAAHISGSFPGVFQKVSLSDQPYQAGVEWTEFQDGGVMINVPVPEMIDKNFDSGPLRRNDNLILEFEGEAGEVAPDRGTRGGALKGWVVGVPALQAREMLQLEGLEELREQTVVVPLKSERGDFSGMLGGTLNFTMPDEIKAHLQERLQERVGEHLEKRLQASERHTFASLDEALLALDDSMLTSVAQQNPEITDGAVAFRQKARDAFTELTVAIVSANGLAGRLKLDEAMRSALQRLDALADTPERLAWLAAELNHADNVDHQQLLDAMRGQTVQSPVLAAALAEAQRRKVAVIAENIRKEVIFPSLYRPGQPDSNVALLRRAEEQLRHATSPAEINQALNDIVDNYSARGFLRFGKPLSSTTVEMAKAWRNKEFT
Ka: 3.08e+07 M⁻¹ and 1.77e+07 M⁻¹
